According to US20070141048A1 (SYMPHOGEN A S, published 2007):

T1: Ovalbumin (UniProt P01012 2-386)
T1 sequence: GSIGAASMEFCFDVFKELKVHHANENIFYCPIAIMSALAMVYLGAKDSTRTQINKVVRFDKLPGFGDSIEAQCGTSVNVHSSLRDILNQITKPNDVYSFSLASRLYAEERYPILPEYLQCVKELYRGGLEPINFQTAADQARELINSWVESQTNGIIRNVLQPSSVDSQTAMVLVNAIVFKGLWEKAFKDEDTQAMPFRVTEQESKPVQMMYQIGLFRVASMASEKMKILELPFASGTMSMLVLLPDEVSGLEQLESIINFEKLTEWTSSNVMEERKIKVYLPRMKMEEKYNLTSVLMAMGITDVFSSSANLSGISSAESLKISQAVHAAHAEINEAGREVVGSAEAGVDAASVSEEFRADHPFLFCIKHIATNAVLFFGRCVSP


Each binder was assayed against T1, Ovalbumin (assay: ELISA, periplasmic extract on coated Ovalbumin).

Binder | binding result
g060b09 (Fab, V domains shown) VH: QVQLQESGPTLVKPTQTLTLTCSFSGFSLGTTGVNVGWIRQPPGKALEWLALISWDGGKHYSPSLNSRITLTKDASREQVVVPTMTNMDPADTGRYYCARIVGTHGFDYWGQGTLVTVS VL: EIVLTQSPSFLSASVGDRVTITCRASQGIGNFLAWYQQKPGKAPKLLISGASTLQSWVPSRFSGRGSGTEFTLTISSLQPEDFATYYCQQLNRYPPYTFGQGTKLEIK | no binding (tested: 10 µg/ml Ovalbumin coat)
g060f10 (Fab, V domains shown) VH: QVTLKESGPTLVKPTQTLTLTCTFSGFSLGTTGVNVGWIRQPPGKALEWLALISWGGGKHYSPSLNSRITLTKDASREQVVVLTMANMDPVDTGRYYCARIVGTHGFDYWGQGTLVTVS VL: EIVMTQSPSFLSASVGDRVTITCRASQGIGNFLAWYQQKPGKAPKLLISGASTLQSWVPSRFSGRGSGTEFTLTISSLQPEDFATYYCQQLNRYPPYTFGQGTKLEIK | no binding (tested: 10 µg/ml Ovalbumin coat)
g060g04 (Fab, V domains shown) VH: EVQLVQSGPGLVKPSETLSLTCAVSGASVSGGDYYWSWIRQPPGKALEWIGYIYYIGSTNYNPSLKSRLSLSVDTAKSQFSLKLSSVTAADTAIYFCARARRTYSGYDSAFDYWGQGTLVTVS VL: DVVMTQSPSSLSASVGDRVSITCRASRSVKTYLNWYQQKPGKAPKLLVYGSSSLESGVPSRFSGSGSGTDFTLTISSLQPEDFATYYCQQSFGTPYTFGQGTKLDTK | no binding (tested: 10 µg/ml Ovalbumin coat)
g060h04 (Fab, V domains shown) VH: EVQLVQSGPGLVKPSETLSLTCAVSGASVSGGDYYWSWIRQPPGKALEWIGYIYYIGSTNYNPSLKSRLSLSVDTAKSQFSLKLSSVTAADTATYFCARARRTYSGYDSAFDYWGQGTLVTVS VL: DVVMTQSPSSLSASVGDRVSITCRASRSVKTYLNWYQQKPGKAPKLLVYGSSSLESGVPSRFSGSGSGTDFTLTISSLQPEDFATYCCQQSFGTPYTFGQGTKLDIK | no binding (tested: 10 µg/ml Ovalbumin coat)
g060f11 (Fab, V domains shown) VH: EVQLVQSGGGVVRPGGSLRLSCAGSGFTFDEYAMSWVRQAPGKGLEWVAFINWNGDSTYYADSVKGRFTVSRTNAKNSLYLQMNSLRAEDTAFYYCARDPRTKLGMSYFDYWGQGTLVTVS VL: EIVMTQSPSSLSASVGDRVTITCRASQTISNHLNWYQQKPGRAPKLLIYVGSSLQSGVPSRFSGSGSGTDFTLTISGLQPEDFATYYCQQSYSPSYTFGQGTKVEIK | no binding (tested: 10 µg/ml Ovalbumin coat)
g060a10 (Fab, V domains shown) VH: QITLKESGPTLVKPTQTLTLTCTLSGFSLYTTGVGVGWIRQPPGKALEWLARIYWDDDERYNPSLKSRLTITKDASKNQVVLKMTNMDPVDTATYYCARTMGVVLPFDYWGQGTLVTVS VL: EIVLTQSPSTLSASVGDRVTITCRASQSIGSWLAWYQQKPGKAPKLLIYKASTLQSETPSRFRGSGSGTEFTLTISSLQPDDFATYYCQQFNSFSPWTFGQGTKVEFK | no binding (tested: 10 µg/ml Ovalbumin coat)
g060g03 (Fab, V domains shown) VH: EVQLVQSGPEVKKPGASVRVSCKASGYSLKNYGIHWVRQAPGQGLEWMGWISADNGDTTTALNLRGRVSMTTDTSTNTVYMEVKSLRSDDTAIYFCARDFYSGSYRSFDYWGQGTLVTVS VL: DVVMTQSPSSLSASLGDRVTITCRASQHISNYLNWYQQKPGKAPKLLIYAASSLQSGVPSRFTGSGSGADYTLTISSLQPEDFATYYCQQSYSTSWTFGQGTTVGIK | no binding (tested: 10 µg/ml Ovalbumin coat)
g060a01 (Fab, V domains shown) VH: QVQLVQSGPEVKKPGASVRVSCKASGYSFKNYGIHWVRQAPGQGLEWMGWISADNGDTTTALNLRGRVSMTTDTSTNTVYMEVKSLRSDDTAIYFCARDFYSGSYRSFDCWGQGTLVTVS VL: EIVLTQSPSSLSASLGDRVTITCRASQHISNYLNWYQQKPGKAPKLLICAASSLQSGVPSRFTGSGSGADYTLTISSLQPEDFATYYCQQSYSTSWTFGQGTTVEIK | no binding (tested: 10 µg/ml Ovalbumin coat)
